# Measured values from publication PMC6346094.
# Target: Gβγ (bovine) (UniProt P62871)
substance,measurement,value
His-tagged phosducin (from UniProt P19632 1-245) (natural protein),"decrease of GIRK1* current (two-electrode voltage clamp, Xenopus oocytes coexpressing GIRK1* and Gβγ) 40-50 min after injection of purified His-phosducin to ~23 µM",74%
